Results reported in the DeepSol protein solubility set.

Experiment: soluble on expression in E. coli; label from the status in PepcDB or PDB records

| Sequence | soluble on expression in E. coli |
| --- | --- |
| MSKFAMVFPGQGSQSLGMLADLAAQFPIVEATFSEASSVLGYDLWQLVQQGPAEELNKTWQTQPALLTASVAIWRIWQHQGGKLPSLMAGHSLGEYSALVCAGVLDFKQAVSLVELRGKLMQEAVPEGTGAMYAIIGLDNESIAKACEESAQGQVVSPVNFNSPGQVVIAGNKDAVERAGAACKAAGAKRALPLPVSVPSHCALMKPAADKLAVALEKIDFQEPLFPVVNNVDVKAEVSPVAIRSALVRQLYNPVRWTESVEFIAAEGVELLLEIGPGKVLTGLTKRIVDSLAAAAVNDVVTLNSALEH | not soluble |
| MSKIAIIVDSSSYIPKDQLKKHHIYVIDNPIIFGETIYHEFNWPVNADFYQQMATTPIQPTTSQPAPGDFEAAFQAAKDDGYKQALVITLSSGFSGTFLNTSAIASSHSDIDIHVWDSRIACLGAGNQALLAAYLAEKGIGIDEILSKLQILRSRTGVFFVVDSISHLQRTGRLSGGQALVAGLLNIKPILNINTNKQGKIDAVAKTRKMSGAWRYIEKHFAKIADNYQRAGWPMRVSILDADNPELADAWLKRAEKRWPEIIFERGIIGPLVGVHIGGKAVGLIWAEDYKRLED | not soluble |
| MSKKIRTEAVDYLFDAILSLKDKEECYTFFEDICTINELLSLSQRFEVAKMLREQKTYLEIAEKTGASTATISRVNRSLNYGNDGYDMVFERMEK | not soluble |
| MSKKSQIIETATRLFAEHGFENTPVSLICEEAEVSKGAVFHHFKNKNDILREVFIHITTIIEETDKNDVHLATQEDPLEAAIHEIFDGMSVAKYRKMYQFNFSVMVHPTTRAIVADLIEDRYQQLQTSAEEIFRAVGYSNPVVITKMFIAEIDGIAMNYLLNNDFPLMDIKQEFIKKYCQ | not soluble |
| MSKKTPLNEIAEFDVSDYLRDDEDIAEYLTQVLAEGDSNELLRAIGYIAKARGITQLAKDTGLGRESLYKAFRAGSKPQFETVFKVLHALNINLKAIPKEVVSTRV | not soluble |
| MSKLEAILSQEVEAEIQALLQEAEAKAEAVKREAEEKAKALLQARERALEAQYRAALRRAESAGELLVATARTQARGEVLEEVRRRVREALEALPQKPEWPEVVRKLALEALEALPGAKALVANPEDLPHLEAMARERGVELQAEPALRLGVRAVGAEGKTQVENSLLARMDRAWDAMSSKVAQALWG | soluble |
| MSKLLYLVAVDGGEWGERAADRAIHLAEKTHAKVKLVTVIDWPYIHPMIIEGAAAPLLDKEAEEMTVKAKVITPLVEKYNTLSLNITTELLWGDPAVILKEQVEVTNADMIFVGRQGRSSVVDTLFGSVANKLAHSVSVPIVLVP | not soluble |
| MSKLTAAYNKTRECVVTRSKIMMGYPEARYPTIPKILKKTADFQKLEGSKDRIAFTLSQEPIADKKCTEMIKNVLLEQFQDTDIPANYIAVSMALPNFKIGQNCHDFQPLDWYKNIKGYFTYKKITEQVQAAYFNDEAGNQFLAGVCYYATPAGKWVAKLQTEQTLLRFEFQKAEPFPLNSKSRFDTKAFKKFARYGRYCETEGCRVLVWVGKADGQIVHLNYHPVYCMQWTKGCAECAKDHFEYMWIAPEEPVVQKSKEEDYILKAPEDKDLSDFDQLSDVLNVDAISLH | not soluble |
| MSKPEFIARQGRKPTGWLGHIVARVMARETRPENDRALSFLDLADGDSLIDIGCGHGETLFQADRIVRLSGSVGVDFSEVMLKRARARNRDAVWDTRMAFHCADTAALPFPDKRFGKALSVHTIYFWPNPAAHLAEAFRVLRRGGRFLFCYRSTADRRAVEEFPDTVYRFPSVQEVEEKLKLVGFLGPETTTEDIKGRLTHWSIAEKPLEHHHHHH | soluble |
| MSKQDEVIVVGKFGASYGIRGWLKVVSFTDQPESIFDYKPWLIQVKGEWVEFSVESWKRHKGLVCKLKGLDVREEAQTYTNLEIAVKADALPELSEDEFYWRELFGMEVVTTKGYALGVVDDIFETGSNDVLVVKANLKDAFGKKERLIPFIDEQVIKLIDREAQRIEVDWDPGFLEHHHHHH | soluble |
| MSKRNTQQRRHNIIADLNAQGEVSVDSLAKQFDTSEVTIRKDLAALETSGLLLRRYGGAVALPSEITEAKVDQLSQQKLHIAKKAAMLIRDHNRIIIDSGQTTSALVSELANKKGLVVMTNALSIANEIHALENEPTLLMTGGTWDATSEAFQGQVAEQVLRSYDFDQLFIGADGIDIKRGTTTFNELIGLSRVMAEVAREVIVMVESAKITKKIPNLELNWQQIHTVITDDGLSEEMRIALTEQGVKLIIAKG | not soluble |
| MSKTITWTAALLGSMALAGCSGPKTLYQWEGYQAQVHEYFKGESKEAQAQALEADLEKIRAKNGAVPPGYHAQLGLLYSSIGKDDQMVREFETEKALFPESATYMDFLLNNARGGAR | not soluble |
| MSKTRMEKLKTLKTIAETLNQGHDIKATLDEVLKELLSLTNLQSGWIFLIEEDGSYTLAADAYLPPALSRKEKVLMCEGECYCLTKFNNGGLRKAANIMNCKRIESAENLHCFDTEGITHHATVPLEDGDRRFGLLNVAAAGKTMFDEEELHLLESVAFQIGTAIQRMRLSE | soluble |
| MSLAAGVLPQNEQPYSTLVNNSECVANMKGNLERPTPKYTKVGERLRHVIPGHMACSMACGGRACKYENPARWSEQEQAIKGVYSSWVTDNILAMARPSSELLEKYHIIDQFLSHGIKTIINLQRPGEHASCGNPLEQESGFTYLPEAFMEAGIYFYNFGWKDYGVASLTTILDMVKVMTFALQEGKVAIHCHAGLGRTGVLIACYLVFATRMTADQAIIFVRAKRPNSIQTRGQLLCVREFTQFLTPLRNIFSCCDPKAHAVTLPQYLIRQRHLLHGYEARLLKHVPKIIHLVCKLLLDLAEEGHHHHHH | not soluble |
| MSLAANPWNWFGSSTKVSEQGVGELTASTPLQEQAIADALDGDYRLRSGMKTANGNVVRFFEVMKGDNVAMVINGDQGTISRIDVLDSDIPADTGVKIGTPFSDLYSKAFGNCQKADGDDNRAVECKAEGSQHISYQFSGEWRGPEGLMPSDDTLKNWKVSKIIWRREGHHHHHH | soluble |
| MSLAATGDAGWRIRLREAAVVAGPTVLLGEVADPVGEMPAAVWRDLAARPLWAAPADAGRPMIVNKVRLGEALRAALGATADSCLLPPSMALQRGGAVLREGDLRDIVVRTMTPQLASMGGEASFSDFRLPPFAFLEHPQQKVILEPLQPAPGRLSLRFAVLEMDGAVVRRFTGTAFLDVWLTVPCAAQPLNRGDRLEVEKVTWMRKNIAHLRAAPWDGRGGPWQLQRPVGAGQVVYQDDVAPNPAVTRGGIVTLVYESPALRLAVQGEALADGMPGETIQVRNLQSRKQVYATVRDGSTVVVREGHHHHHH | soluble |
| MSLAETLEKNAIDKSEYPQTAELENRCVNILADLWNAPKDMSYLGTSTVGSSEACMLGGLAMKFRWRNNAEKRGLDIQAKRPNLIISSGYQVCWEKFCVYWDVDMRVVPMDKNHLSLDVDKVFDLVDEYTIGVVGILGITYTGKFDDIQLLDEKVEAYNETNEHQLVIHIDGASGAMFTPFVNPELPWDFRLKNVVSINTSGHKYGLVYPGVGWILWKDKEYLPKELIFEVSYLGGSMPTMAINFSRSASQIIGQYYNFLRYGFEGYREIHEKTKKTAIYLAKTVEKSGYFEIINDGANLPIVCYKMKEGLDVEWTLYDLADQLLMKGWQVPAYPLPADLSDTIIQRFVCRADLGYNVAEEFAADFADAIHNLEHARVLYHDKERNDSYGFTHEGHHHHHH | soluble |
| MSLAEYVYTMSRVSKIVPPKRQILKDISLSFFPGAKIGVLGLNGAGKSTLLRIMAGIDKDIDGEARPQPGLKVGYLPQEPKLDESKTVREVVEEAVADVAYALKRLDEVYAAYAEPDADFDALAKEQGELEALIQAKNGHNLDNALERAADALRLPEWDAQVKYLSGGERRRVAICRLLLENPDMLLLDEPTNHLDAESVAWLERFLVDYAGTVVAITHDRYFLDNAAGWILELDRGEGIPWQGNYTSWLEQKDARLKQEASEGHHHHHH | not soluble |
| MSLAHPPRLNDDKPVIWTVSVTRLFELFRDISLEFDHLANITPIQLGFEKAVTYIRKKLANERCDAIIAAGSNGAYLKSRLSVPVILIKPSGYDVLQELAKAGKLTSSIGVVTYQETIPALVAFQKTFNLRLDQRSYITEEDARGQINELKANGTEAVVGAGLITDLAEEAGMTGIFIYSAATVRQAFSDALDMTRMSLRHNTHDATRNALRTRYVLEGHHHHHH | soluble |
| MSLAKASAESLGGTVASEESIASYIGAGILSSGGNAVDAAVATSLALTVLIPHLGGVGGDFFMLYRSPEGRVFFVNGSGFAPRRLTREEVLGRGLQEIPESGPLSPTTPGYLAGLYHSWRSFGTMEWASLVKPARLLASRGFPLPPSTARSLKLRRECLEADPGSREAVLKTLPREEGSPARLPGLAALLSGVEEDPLYLYQGEPAEALEEYLASIGGVMGAEDLAGTRGFTAEPLYSEYRGWKVWEMPPNTQGVTTLHLLMLLEEEELPEPFSPERVDILAGLARMAYSIRDRYVGDPRYMPIDPHELARKETLLKLLGQEESNGSKATGDTTFFAVADREGGIVAGIQSLFYPWGSCVTEPRFQVTLNNRARGFTLKEGLPSTLRPGAFPLHTLSSVIMEQRERVIALGASGGHLRPQQHALFVTNIVDYGMNVLDAINAPRAVWDPGRGEILCEEGFGCRPSWRKVERIGVANAVEVAGSVKRGYTDMRGDGLPAVEGHHHHHH | not soluble |
| MSLAKAYDHLFKLLLIGDSGVGKTCLIIRFAEDNFNNTYISTIGIDFKIRTVDIEGKKIKLQVWDTAGQERFKTITTAYYRGAMGIILVYDITDEKSFENIQNWMKSIKENASAGVERLLLGNKCDMEAKRKVQKEQADKLAREHGIRFFETSAKSSMNVDEAFSSLARDILLKSGGRRSGNEGHHHHHH | soluble |
| MSLAKLNVEVFADGADIEQMKAAYKNKEVDGFTTNPSLMAKAGVTDYKSFAEEAVKEIPDASISFEVFADDLETMEKEAEILKQYGDNVFVKIPVVNTKGESTIPLIKKLSADNVRLNVTAVYTIEQVKEITEAVTEGVPTYISVFAGRIADTGVDPLPLMKESVDVAHSKEGVKLLWASCRELFNVIQADEIGADIITCPADVVKKVNTNLGRDINELSVDTVKGFAKDIQSSGLSEGHHHHHH | soluble |
| MSLAKPIEAHTVSPVNPNAQQTTKTVMNWLAHLPNRTENRVLSGAFGGYSHDTFSMAEADRIRSATGQSPAIYGCDYARGWLETANIEDSIDVSCNGDLMSYWKNGGIPQISLHLANPAFQSGHFKTPITNDQYKKILDSSTVEGKRLNAMLSKIADGLQELENQGVPVLFRPLHEMNGEWFWWGLTSYNQKDNERISLYKQLYKKIYHYMTDTRGLDHLIWVYSPDANRDFKTDFYPGASYVDIVGLDAYFQDAYSINGYDQLTALNKPFAFTEVGPQTANGSFDYSLFINAIKQKYPKTIYFLAWNDEWSAAVNKGASALYHDSWTLNKGEIWNGDSLTPIVEEGHHHHHH | soluble |
| MSLALELRQQLKLSQQLVMTPQLQQAIRLLQLSRLELVETVQQELLENPFLEEGMDEGAASSASEASSRKDESAPEAYDRELSRNADWEDYLGEFASSSRQAQVRETELPEEMTAFEARYSARPSLEGHLMWQLRLSRLTEDQKGIGETIIGNIGSSGYLQASVEDIAEMCGADASEVIPVLHAVQRFDPVGVASRTPQECLLIQIEMLGYDRDRVLVELVRDHLEDLETRRYKPLLRKFKLDMDDLKEYLDIIQSLDPMPGSSFGGSDPMFVSPDVFVYKYDDEFVIVLNDDGLPHLQLSSLYDQSLAGVTGKDKDFVQEKVRSASWLIKSLYQRQRTLYKVVESIIKYQRGFFEDGVTRLRPLILKDIADDISMHESTVSRITTNKFVATPHGVFELKFFFNSALELDDGSQVGSESVKALIKKLIGEENPKEPLSDERIGEILKEQLQVNIARRTVAKYRTAMNIPSSSKRKEVFEGHHHHHH | soluble |
